Results from publication PMC12457548, “Comparative Characterization of Plasmodium falciparum Small Heat Shock Proteins and Their Inhibition by Quercetin (3,3′,4′,5,7-Pentahydroxyflavone)” (The Protein Journal, 2025).

T1: PfHsp20b (Plasmodium falciparum, UniProt Q8IB02)
T1 construct: gene PF3D7_0816500; full-length, residues 1–173, N-terminal 6xHis
T1 sequence (Q8IB02 1-172): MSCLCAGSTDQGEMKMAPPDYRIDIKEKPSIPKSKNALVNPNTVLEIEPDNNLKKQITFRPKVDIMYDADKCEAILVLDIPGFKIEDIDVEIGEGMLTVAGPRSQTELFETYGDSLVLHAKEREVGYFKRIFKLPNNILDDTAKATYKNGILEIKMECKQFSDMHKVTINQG


Key:
PfHsp20a = molecular target: T2, PfHsp20a (Plasmodium falciparum, UniProt Q8IES0); experiment: inhibition of chaperone activity (suppression of heat-induced MDH/CS aggregation); CD, DSF and DLS shifts also measured; assay type: biochemical
T2 construct: gene PF3D7_1304500; full-length, residues 1–211, N-terminal 6xHis

PfHsp20c = molecular target: T3, PfHsp20c (Plasmodium falciparum, UniProt Q8I5T9); experiment: as above; assay type: biochemical
T3 construct: gene PF3D7_1211100; full-length, residues 1–231, N-terminal 6xHis

PfHsp20b = molecular target: T1, PfHsp20b; experiment: as above; assay type: biochemical
[1] = molecular target: the molecule itself; experiment: dynamic light scattering; as a1 but in the presence of 3 uM quercetin; 20 mM Tris pH 7.4, 300 mM NaCl, 25 °C; oligomer size estimated from the hydrodynamic radius
[2] = molecular target: the molecule itself; experiment: dynamic light scattering; 0-6 uM protein alone in 20 mM Tris pH 7.4, 300 mM NaCl, 25 °C; oligomer size estimated from the average hydrodynamic radius with the fluidic webserver

Row | Molecule | IC50 (PfHsp20a) | IC50 (PfHsp20c) | IC50 (PfHsp20b) | stoichiometry N [1] | stoichiometry N [2]
1 | O=c1c(O)c(-c2ccc(O)c(O)c2)oc2cc(O)cc(O)c12 [quercetin, 3,3′,4′,5,7-pentahydroxyflavone] | 320 ± 110 nM | 110 ± 70 nM | 550 ± 100 nM |  | 
2 | PfHsp20c (natural protein, Plasmodium falciparum, UniProt Q8I5T9 1-231, looked up, Codon-harmonised synthetic gene in pQE30 between BamHI and HindIII; forms large oligomers in solution by DLS; also called PF3D7_1211100; P. falciparum Hsp20; source: E. coli XL1 Blue, purified (IMAC)) MSTTNILKPKIIIESSKEQGVGEKRSSTLSAPFEKNMFSTYSYSNPISNMRSSTHNEYKYNWTKYVNSSQIPHVDEYIKTFEGPNTTYYYETIPLKTNTNNIFEITPSQEELSRISYNPKIEIYSTCDFAVLMMDIPGVSKENLKVELEKGLLKVYGNKYKPHIEELEKRNEYHTKIIERLNEYYFCKIFQMPPAFSEGQNISCKLNNGELLVKILANELKTQKKVIDIQS |  |  |  | 35 | 
3 | PfHsp20b (natural protein, Plasmodium falciparum, UniProt Q8IB02 1-172, looked up, Codon-harmonised synthetic gene in pQE30 between BamHI and HindIII; forms oligomers in solution by DLS; also called PF3D7_0816500; P. falciparum Hsp20; source: E. coli XL1 Blue, purified (IMAC)) MSCLCAGSTDQGEMKMAPPDYRIDIKEKPSIPKSKNALVNPNTVLEIEPDNNLKKQITFRPKVDIMYDADKCEAILVLDIPGFKIEDIDVEIGEGMLTVAGPRSQTELFETYGDSLVLHAKEREVGYFKRIFKLPNNILDDTAKATYKNGILEIKMECKQFSDMHKVTINQG |  |  |  | 37 | ~38
4 | PfHsp20a (natural protein, Plasmodium falciparum, UniProt Q8IES0 1-211, looked up, Codon-harmonised synthetic gene in pQE30 between BamHI and HindIII; forms large oligomers in solution by DLS; also called PF3D7_1304500; P. falciparum Hsp20; source: E. coli XL1 Blue, purified (IMAC)) MSENNLSKDNNKNKRNEALENAGMLDTFFESMYDHMNRLDQYHSDMNRMMNSLRGYYMNNDFFRFFPNRRSLTDYDINRNRNHDLLLSKPFSSMFRRDGYSNVPAMDVLDKEKHLEIKMDVPGLNKEDVQINLDDGKLEISGEFKKSHEQKDEQQRYYIKERCESSFYRSFTLPENVSEDEIKATFKDGVLKIDIPKKDIPDKKKKKIEID |  |  |  | 40 | 
